Reference: PMC11085213, “Plastid Molecular Chaperone HSP90C Interacts with the SecA1 Subunit of Sec Translocase for Thylakoid Protein Transport” (Plants, 2024)

How the values were obtained:
[1] = biological target: His6-tagged mSecA1 (Arabidopsis) (UniProt Q9SYI0)
[2] = substrate: Nc1ncnc2c1ncn2[C@@H]1O[C@H](COP(=O)(O)OP(=O)(O)OP(=O)(O)O)[C@@H](O)[C@H]1O; assay: ATPase, NADH-coupled (pyruvate kinase / lactate dehydrogenase); radicicol-sensitive activity; assay type: biochemical, Arabidopsis thaliana; details: pH 7.5, 5 mM MgCl2, 500 mM KCl, HSP90C alone, called ATP binding affinity

His6-tagged mSecA1 (Arabidopsis), sequence (Q9SYI0 73-1022): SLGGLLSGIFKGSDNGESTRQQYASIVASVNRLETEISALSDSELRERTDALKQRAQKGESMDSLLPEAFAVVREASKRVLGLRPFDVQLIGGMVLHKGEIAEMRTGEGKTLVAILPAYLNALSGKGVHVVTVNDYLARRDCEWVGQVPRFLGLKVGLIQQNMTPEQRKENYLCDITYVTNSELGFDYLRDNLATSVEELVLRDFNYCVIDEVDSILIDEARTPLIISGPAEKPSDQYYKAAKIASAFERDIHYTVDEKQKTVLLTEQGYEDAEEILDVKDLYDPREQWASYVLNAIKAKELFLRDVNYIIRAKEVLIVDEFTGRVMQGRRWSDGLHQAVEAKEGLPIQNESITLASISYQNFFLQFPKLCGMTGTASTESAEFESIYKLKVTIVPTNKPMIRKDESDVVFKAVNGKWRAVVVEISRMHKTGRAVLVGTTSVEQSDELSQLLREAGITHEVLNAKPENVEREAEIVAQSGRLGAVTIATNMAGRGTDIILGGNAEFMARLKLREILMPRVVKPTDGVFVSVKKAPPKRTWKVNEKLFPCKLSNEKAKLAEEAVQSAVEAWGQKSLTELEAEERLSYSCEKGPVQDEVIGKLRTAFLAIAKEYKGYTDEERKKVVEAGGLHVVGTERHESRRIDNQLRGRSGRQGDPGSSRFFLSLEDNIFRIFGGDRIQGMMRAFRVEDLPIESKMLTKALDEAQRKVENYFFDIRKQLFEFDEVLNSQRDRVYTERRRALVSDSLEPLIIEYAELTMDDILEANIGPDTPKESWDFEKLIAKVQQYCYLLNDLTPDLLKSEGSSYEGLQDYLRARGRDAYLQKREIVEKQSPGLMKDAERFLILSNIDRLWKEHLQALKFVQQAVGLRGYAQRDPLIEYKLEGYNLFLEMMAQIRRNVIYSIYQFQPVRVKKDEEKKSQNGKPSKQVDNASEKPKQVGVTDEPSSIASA

| combined ATP turnover rate (kcat) of the equimolar mixture SecA1 + HSP90C (1.41 μM each), NADH-coupled assay at 5 mM ATP; sum of the two proteins' own average rates 2.93 min^−1 [1] [s⁻¹] | rise of the ATP turnover rate of SecA1 + HSP90C + PsbO1 (equimolar) relative to the SecA1 + HSP90C mixture, NADH-coupled assay [1] [%] | Molecule | Km [2] [mM] |
| --- | --- | --- | --- |
| 0.0581 | 16 | His6-tagged HSP90C (from UniProt Q9SIF2 61-780) (natural protein) |  |
|  |  | HSP90C (Arabidopsis thaliana) (protein, His6-tagged HSP90C (pProEX HTb), E. coli BL21(DE3)-pRIL, Ni-NTA and Superdex 200) CDAAVAEKETTEEGSGEKFEYQAEVSRLLDLIVHSLYSHKEVFLRELVSNASDALDKLRFLSVTEPSLLGDGGDLEIRIKPDPDNGTITITDTGIGMTKEELIDCLGTIAQSGTSKFLKALKENKDLGADNGLIGQFGVGFYSAFLVAEKVVVSTKSPKSDKQYVWESVADSSSYLIREETDPDNILRRGTQITLYLREDDKYEFAESTRIKNLVKNYSQFVGFPIYTWQEKSRTIEVEEDEPVKEGEEGEPKKKKTTKTEKYWDWELANETKPLWMRNSKEVEKGEYNEFYKKAFNEFLDPLAHTHFTTEGEVEFRSILYIPGMGPLNNEDVTNPKTKNIRLYVKRVFISDDFDGELFPRYLSFVKGVVDSDDLPLNVSREILQESRIVRIMRKRLIRKTFDMIQEISESENKEDYKKFWENFGRFLKLGCIEDTGNHKRITPLLRFFSSKNEEELTSLDDYIENMGENQKAIYYLATDSLKSAKSAPFLEKLIQKDIEVLYLVEPIDEVAIQNLQTYKEKKFVDISKEDLELGDEDEVKDREAKQEFNLLCDWIKQQLGDKVAKVQVSNRLSSSPCVLVSGKFGWSANMERLMKAQALGDTSSLEFMRGRRILEINPDHPIIKDLNAACKNAPESTEATRVVDLLYDTAIISSGFTPDSPAELGNKIYEMMAMAVGGRWGRVEEEEESSTVNEGDDKSGETEVVEPSEVRAESDPWQD | 4.01 |
